# Test results published in publication PMC2756588.
# T1: Fus1, P11710
# T1 sequence (P11710 432-512, looked up): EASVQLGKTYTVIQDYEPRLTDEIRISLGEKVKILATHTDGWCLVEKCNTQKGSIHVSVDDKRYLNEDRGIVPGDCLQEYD
# T2: Abp1, P15891
# T2 sequence (P15891 535-592, looked up): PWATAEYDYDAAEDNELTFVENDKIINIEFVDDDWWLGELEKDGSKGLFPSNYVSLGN
# T3: Bud14, P27637
# T3 sequence (P27637 247-328, looked up): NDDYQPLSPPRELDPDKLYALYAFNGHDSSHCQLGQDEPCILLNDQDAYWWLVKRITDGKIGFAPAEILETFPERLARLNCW
# T4: Sla1-3, P32790
# T4 sequence (P32790 344-424, looked up): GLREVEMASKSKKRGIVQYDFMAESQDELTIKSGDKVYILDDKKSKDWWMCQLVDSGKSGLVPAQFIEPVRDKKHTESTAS
# T5: Bbc1, P47068
# T5 sequence (P47068 1-78, looked up): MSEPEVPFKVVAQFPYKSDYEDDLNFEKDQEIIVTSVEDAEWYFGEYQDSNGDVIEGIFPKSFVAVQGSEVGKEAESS
# T6: Pin3, Q06449
# T6 sequence (Q06449 53-122, looked up): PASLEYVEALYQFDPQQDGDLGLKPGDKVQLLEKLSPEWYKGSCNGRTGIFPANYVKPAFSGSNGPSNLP
# T7: Hse1, P38753
# T7 sequence (P38753 208-285, looked up): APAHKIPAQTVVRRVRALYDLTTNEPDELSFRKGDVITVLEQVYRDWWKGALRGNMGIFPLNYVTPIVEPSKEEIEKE
# T8: Nbp2, Q12163
# T8 sequence (Q12163 103-180, looked up): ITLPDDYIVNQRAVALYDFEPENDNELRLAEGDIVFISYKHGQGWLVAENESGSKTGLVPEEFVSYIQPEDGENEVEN
# T9: Sla1-2, P32790
# T9 sequence (P32790 60-140, looked up): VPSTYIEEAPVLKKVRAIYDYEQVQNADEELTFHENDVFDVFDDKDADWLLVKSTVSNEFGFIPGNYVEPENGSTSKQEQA
# T10: Lsb3, P43603
# T10 sequence (P43603 385-451, looked up): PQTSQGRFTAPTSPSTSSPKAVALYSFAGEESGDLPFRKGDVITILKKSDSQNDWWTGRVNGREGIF
# T11: Boi1, P38041
# T11 sequence (P38041 1-86, looked up): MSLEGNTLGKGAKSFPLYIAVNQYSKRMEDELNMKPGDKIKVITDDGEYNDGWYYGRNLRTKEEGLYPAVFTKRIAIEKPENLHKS
# T12: Hof1, Q05080
# T12 sequence (Q05080 590-669, looked up): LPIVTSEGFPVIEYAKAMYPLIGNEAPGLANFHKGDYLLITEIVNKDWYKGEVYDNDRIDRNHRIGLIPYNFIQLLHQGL
# T13: Bzz1-1, P38822
# T13 sequence (P38822 478-572, looked up): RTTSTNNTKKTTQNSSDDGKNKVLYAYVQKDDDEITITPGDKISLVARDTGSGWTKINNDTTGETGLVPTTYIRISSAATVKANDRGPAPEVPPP
# T14: Myo5, Q04439
# T14 sequence (Q04439 1072-1160, looked up): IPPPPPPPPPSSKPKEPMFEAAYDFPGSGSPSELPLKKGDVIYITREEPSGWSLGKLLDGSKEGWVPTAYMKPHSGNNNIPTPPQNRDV
# T15: Lsb1, P53281
# T15 sequence (P53281 45-122, looked up): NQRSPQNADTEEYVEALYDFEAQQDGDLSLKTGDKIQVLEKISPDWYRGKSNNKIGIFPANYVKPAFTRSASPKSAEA
# T16: Boi2, P39969
# T16 sequence (P39969 32-116, looked up): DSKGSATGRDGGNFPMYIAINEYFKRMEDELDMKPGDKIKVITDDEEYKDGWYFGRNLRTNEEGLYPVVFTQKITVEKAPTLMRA
# T17: Lsb4, P32793
# T17 sequence (P32793 402-468, looked up): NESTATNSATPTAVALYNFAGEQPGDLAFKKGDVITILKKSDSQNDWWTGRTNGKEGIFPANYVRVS
# T18: Bzz1-2, P38822
# T18 sequence (P38822 568-633, looked up): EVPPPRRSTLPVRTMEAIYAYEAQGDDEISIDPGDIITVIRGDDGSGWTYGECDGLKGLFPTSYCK
# T19: Cdc25, P04821
# T19 sequence (P04821 50-136, looked up): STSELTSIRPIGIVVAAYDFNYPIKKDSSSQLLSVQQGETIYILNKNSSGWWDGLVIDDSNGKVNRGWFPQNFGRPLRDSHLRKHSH
# T20: Pex13, P80667
# T20 sequence (P80667 295-386, looked up): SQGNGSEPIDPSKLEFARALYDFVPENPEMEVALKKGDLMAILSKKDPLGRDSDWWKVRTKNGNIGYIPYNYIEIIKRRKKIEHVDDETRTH
# T21: Cyk3, Q07533
# T21 sequence (Q07533 1-83, looked up): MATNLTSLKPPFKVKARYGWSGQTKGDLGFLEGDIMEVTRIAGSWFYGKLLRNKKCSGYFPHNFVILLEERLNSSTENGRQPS
# Biological target: T1, Fus1, P11710
# Experiment: SPOT array
# Conditions: median of control spots 1200
row,SPOT intensity,Binder
1,78,VLRFLGFPLPIFEKG
2,39,ITHRLRISIPGITGR
3,13,NNFYRPLLRSVLVLL

# Biological target: T2, Abp1, P15891
# Experiment: SPOT array
# Conditions: median of control spots 935
row,SPOT intensity,Binder
1,19,VLRFLGFPLPIFEKG
2,118,ITHRLRISIPGITGR
3,14,NNFYRPLLRSVLVLL

# Biological target: T3, Bud14, P27637
# Experiment: SPOT array
# Conditions: median of control spots 956
row,SPOT intensity,Binder
1,17,VLRFLGFPLPIFEKG
2,8,ITHRLRISIPGITGR
3,14,NNFYRPLLRSVLVLL

# Biological target: Bem1-1, P29366
# Sequence (P29366 55-141): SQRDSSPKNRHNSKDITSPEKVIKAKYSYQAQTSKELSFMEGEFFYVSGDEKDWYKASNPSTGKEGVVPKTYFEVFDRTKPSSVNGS
# Experiment: SPOT array
# Conditions: median of control spots 4282
row,SPOT intensity,Binder
1,0,VLRFLGFPLPIFEKG
2,0,ITHRLRISIPGITGR
3,0,NNFYRPLLRSVLVLL

# Biological target: T4, Sla1-3, P32790
# Experiment: SPOT array
# Conditions: median of control spots 5475
row,SPOT intensity,Binder
1,0,VLRFLGFPLPIFEKG
2,2,ITHRLRISIPGITGR
3,4,NNFYRPLLRSVLVLL

# Biological target: Myo3, P36006
# Experiment: SPOT array
# Conditions: median of control spots 468
row,SPOT intensity,Binder
1,1,VLRFLGFPLPIFEKG
2,37,ITHRLRISIPGITGR
3,0,NNFYRPLLRSVLVLL

# Biological target: T5, Bbc1, P47068
# Experiment: SPOT array
# Conditions: median of control spots 796
row,SPOT intensity,Binder
1,30,VLRFLGFPLPIFEKG
2,24,ITHRLRISIPGITGR
3,37,NNFYRPLLRSVLVLL

# Biological target: T6, Pin3, Q06449
# Experiment: SPOT array
# Conditions: median of control spots 2171
row,SPOT intensity,Binder
1,3,VLRFLGFPLPIFEKG
2,69,ITHRLRISIPGITGR
3,5,NNFYRPLLRSVLVLL

# Biological target: Rvs167, P39743
# Sequence (P39743 419-482): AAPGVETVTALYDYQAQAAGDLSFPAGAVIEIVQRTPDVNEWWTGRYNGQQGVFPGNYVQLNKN
# Experiment: SPOT array
# Conditions: median of control spots 2707
row,SPOT intensity,Binder
1,0,VLRFLGFPLPIFEKG
2,0,ITHRLRISIPGITGR
3,2,NNFYRPLLRSVLVLL

# Biological target: Sho1, P40073
# Sequence (P40073 287-367): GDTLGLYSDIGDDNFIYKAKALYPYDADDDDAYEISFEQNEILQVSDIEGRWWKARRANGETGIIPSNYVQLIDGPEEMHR
# Experiment: SPOT array
# Conditions: median of control spots 1148
row,SPOT intensity,Binder
1,43,VLRFLGFPLPIFEKG
2,191,ITHRLRISIPGITGR
3,17,NNFYRPLLRSVLVLL

# Biological target: T7, Hse1, P38753
# Experiment: SPOT array
# Conditions: median of control spots 1727
row,SPOT intensity,Binder
1,6,VLRFLGFPLPIFEKG
2,11,ITHRLRISIPGITGR
3,0,NNFYRPLLRSVLVLL

# Biological target: T8, Nbp2, Q12163
# Experiment: SPOT array
# Conditions: median of control spots 357
row,SPOT intensity,Binder
1,41,VLRFLGFPLPIFEKG
2,32,ITHRLRISIPGITGR
3,3,NNFYRPLLRSVLVLL

# Biological target: T9, Sla1-2, P32790
# Experiment: SPOT array
# Conditions: median of control spots 712
row,SPOT intensity,Binder
1,0,VLRFLGFPLPIFEKG
2,4,ITHRLRISIPGITGR
3,0,NNFYRPLLRSVLVLL

# Biological target: T10, Lsb3, P43603
# Experiment: SPOT array
# Conditions: median of control spots 406
row,SPOT intensity,Binder
1,0,VLRFLGFPLPIFEKG
2,9,ITHRLRISIPGITGR
3,1,NNFYRPLLRSVLVLL

# Biological target: T11, Boi1, P38041
# Experiment: SPOT array
# Conditions: median of control spots 1162
row,SPOT intensity,Binder
1,1,VLRFLGFPLPIFEKG
2,1,ITHRLRISIPGITGR
3,6,NNFYRPLLRSVLVLL

# Biological target: T12, Hof1, Q05080
# Experiment: SPOT array
# Conditions: median of control spots 4086
row,SPOT intensity,Binder
1,4,VLRFLGFPLPIFEKG
2,1,ITHRLRISIPGITGR
3,0,NNFYRPLLRSVLVLL

# Biological target: T13, Bzz1-1, P38822
# Experiment: SPOT array
# Conditions: median of control spots 4446
row,SPOT intensity,Binder
1,0,VLRFLGFPLPIFEKG
2,1,ITHRLRISIPGITGR
3,3,NNFYRPLLRSVLVLL

# Biological target: T14, Myo5, Q04439
# Experiment: SPOT array
# Conditions: median of control spots 471
row,SPOT intensity,Binder
1,0,VLRFLGFPLPIFEKG
2,4,ITHRLRISIPGITGR
3,0,NNFYRPLLRSVLVLL

# Biological target: T15, Lsb1, P53281
# Experiment: SPOT array
# Conditions: median of control spots 388
row,SPOT intensity,Binder
1,0,VLRFLGFPLPIFEKG
2,231,ITHRLRISIPGITGR
3,0,NNFYRPLLRSVLVLL

# Biological target: T16, Boi2, P39969
# Experiment: SPOT array
# Conditions: median of control spots 1161
row,SPOT intensity,Binder
1,1,VLRFLGFPLPIFEKG
2,1,ITHRLRISIPGITGR
3,2,NNFYRPLLRSVLVLL

# Biological target: GST
# Experiment: SPOT array
# Conditions: median of control spots 978
row,SPOT intensity,Binder
1,0,VLRFLGFPLPIFEKG
2,0,ITHRLRISIPGITGR
3,1,NNFYRPLLRSVLVLL

# Biological target: T17, Lsb4, P32793
# Experiment: SPOT array
# Conditions: median of control spots 397
row,SPOT intensity,Binder
1,0,VLRFLGFPLPIFEKG
2,5,ITHRLRISIPGITGR
3,0,NNFYRPLLRSVLVLL

# Biological target: T18, Bzz1-2, P38822
# Experiment: SPOT array
# Conditions: median of control spots 4538
row,SPOT intensity,Binder
1,0,VLRFLGFPLPIFEKG
2,0,ITHRLRISIPGITGR
3,2,NNFYRPLLRSVLVLL

# Biological target: T19, Cdc25, P04821
# Experiment: SPOT array
# Conditions: median of control spots 969
row,SPOT intensity,Binder
1,28,VLRFLGFPLPIFEKG
2,29,ITHRLRISIPGITGR
3,22,NNFYRPLLRSVLVLL

# Biological target: T20, Pex13, P80667
# Experiment: SPOT array
# Conditions: median of control spots 1341
row,SPOT intensity,Binder
1,4,VLRFLGFPLPIFEKG
2,32,ITHRLRISIPGITGR
3,4,NNFYRPLLRSVLVLL

# Biological target: Bem1-2, P29366
# Sequence (P29366 139-227): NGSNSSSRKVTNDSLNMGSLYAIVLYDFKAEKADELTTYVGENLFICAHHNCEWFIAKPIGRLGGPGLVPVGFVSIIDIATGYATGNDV
# Experiment: SPOT array
# Conditions: median of control spots 4347
row,SPOT intensity,Binder
1,2,VLRFLGFPLPIFEKG
2,6,ITHRLRISIPGITGR
3,3,NNFYRPLLRSVLVLL

# Biological target: T21, Cyk3, Q07533
# Experiment: SPOT array
# Conditions: median of control spots 1451
row,SPOT intensity,Binder
1,7,VLRFLGFPLPIFEKG
2,0,ITHRLRISIPGITGR
3,9,NNFYRPLLRSVLVLL
